Results published in patent US20250090677A1 (MULTITUDE THERAPEUTICS, published 2025).

How the values were obtained:
[1] = biological target: T1, CDH6 on the cell surface of OVCAR-3 cells (human ovarian cancer cells) (human, UniProt P55285 54-790); test: flow cytometry (FACS) on OVCAR-3 cells, antibody titration, labelled secondary antibody, MFI
T1 construct: whole, on cells; also called CDH6-positive human ovarian cancer cell line OVCAR-3
T1 sequence (looked up): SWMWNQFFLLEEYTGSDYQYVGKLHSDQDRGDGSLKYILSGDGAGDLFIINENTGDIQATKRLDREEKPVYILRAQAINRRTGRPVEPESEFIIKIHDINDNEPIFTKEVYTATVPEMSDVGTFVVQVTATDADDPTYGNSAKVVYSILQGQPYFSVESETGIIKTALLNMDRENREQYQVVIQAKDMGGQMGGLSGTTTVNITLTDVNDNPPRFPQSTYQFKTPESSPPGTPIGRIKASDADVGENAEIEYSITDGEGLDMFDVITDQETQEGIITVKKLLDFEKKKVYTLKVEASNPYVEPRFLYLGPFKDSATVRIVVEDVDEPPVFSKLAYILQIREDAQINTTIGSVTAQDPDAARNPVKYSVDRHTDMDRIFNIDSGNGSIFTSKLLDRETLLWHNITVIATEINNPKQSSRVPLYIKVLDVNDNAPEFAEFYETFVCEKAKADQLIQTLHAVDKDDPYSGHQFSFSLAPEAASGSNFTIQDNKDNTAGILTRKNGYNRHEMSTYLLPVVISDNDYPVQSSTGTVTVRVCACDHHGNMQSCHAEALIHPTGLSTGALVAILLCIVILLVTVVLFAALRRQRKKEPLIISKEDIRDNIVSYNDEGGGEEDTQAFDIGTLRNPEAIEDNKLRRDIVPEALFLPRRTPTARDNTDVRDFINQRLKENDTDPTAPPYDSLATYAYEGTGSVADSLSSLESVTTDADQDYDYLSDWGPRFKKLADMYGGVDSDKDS
Description: The binding EC50 of the humanized antibodies on tumor cell were tested as follow. Human ovarian cancer cell line OVCAR-3(purchased from National Collection of Authenticated Cell Cultures) cell culture was maintained in vitro as independent monolayer cultures at 37° C. in an atmosphere of 5% CO₂. The cells were harvested using trypsin-EDTA partial digestion followed by centrifugation at 1000 rpm for 5 minutes. The cell was resuspended in cold PBS and serial dilution of Ch069707 and CL069707-H1L1, CL069707-H1L2, CL069707-H2L1 and CL069707-H2L2 antibodies were added. Ch069707 antibody was a chimeric antibody. The variable regions were the same as those of CL069707, and the constant region was the same as human IgG1 constant regions (SEQ ID NO: 70 and SEQ ID NO: 71). The cell solutions were mixed, incubated at 4° C. and washed with cold PBS prior to addition of secondary antibody conjugates (for detection purposes). After incubation at 4° C., the cells were washed with PBS, and then subjected to flow cytometry (FACS) analysis.

rat CDH6-ECD-His = biological target: T2, rat CDH6-ECD-His (rat, UniProt P55280 54-615); test: ELISA, antigen coated at 1 ug/mL, 3-fold antibody dilutions, HRP anti-human antibody, OD450
T2 construct: extracellular domain; Bought protein; not shown: His tag
T2 sequence (looked up): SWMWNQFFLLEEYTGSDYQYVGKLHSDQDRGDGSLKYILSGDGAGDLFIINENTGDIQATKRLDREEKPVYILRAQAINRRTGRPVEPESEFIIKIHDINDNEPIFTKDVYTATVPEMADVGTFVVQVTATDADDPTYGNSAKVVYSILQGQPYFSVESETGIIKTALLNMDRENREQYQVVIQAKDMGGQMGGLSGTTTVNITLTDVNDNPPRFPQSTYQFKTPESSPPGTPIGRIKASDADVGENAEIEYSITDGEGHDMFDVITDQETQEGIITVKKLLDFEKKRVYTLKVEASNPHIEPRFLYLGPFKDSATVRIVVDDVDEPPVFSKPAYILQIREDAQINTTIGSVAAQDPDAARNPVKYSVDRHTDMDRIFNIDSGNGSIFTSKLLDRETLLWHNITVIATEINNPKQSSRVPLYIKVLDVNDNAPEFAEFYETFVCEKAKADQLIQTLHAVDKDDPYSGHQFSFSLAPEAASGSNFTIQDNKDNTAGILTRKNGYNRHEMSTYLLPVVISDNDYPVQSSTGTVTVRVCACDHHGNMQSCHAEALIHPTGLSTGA
Description: CDH9 and […] are the most closely related family members to CDH6. Binding of CL069707-H1L1 on human CDH6, CDH9 and CDH10 ECD domains were analyzed by ELISA Binding Assay. Human […], CDH9-ECD-His and CDH10-ECD-His antigens were obtained from Acro Biosystems, Inc. 100 μL of 1 μg/mL of the antigens diluted in PBS were added to 96 well plates and incubated in 4° C. overnight. The plates were washed 3 times with 300 μL of washing buffer. Then 100 μL/well of 1% BSA blocking reagent were added to the plates, and incubated at 37° C. for 1 h then the blocking reagent were discarded. A 3-fold serial dilution of CL069707-H1L1 was added to the plates and then incubated at 37° C. for 1 h. Then the plates were washed 3 times with 300 μL of washing buffer. 100 μL/well of HRP-conjugated anti-Human antibody diluted in 1% BSA were added to the plates and then incubated at 37° C. for 1 h. The plates were washed 3 times with 300 μL of washing buffer. 100 μL/well of TMB substrate were added to the plates and incubated for about 10 min in room temperature. Then the reaction was stopped with 100 μL/well of stopping solution. OD450 was read with a plate reader and the data were processed.
Binding of CL069707-H1L1 on human, cyno monkey, mouse or rat CDH6 antigen were analyzed by ELISA. Human, cyno monkey, mouse and rat CDH6-ECD-His antigens were obtained from Acro Biosystems, Inc. ELISA were done with the same methods as in example 3.1. CL069707-H1L1 binds to human, cyno monkey, mouse and rat CDH6-ECD-His antigens with similar EC50.

B1: CL069707-H1L1 (antibody, human IgG1, kappa, V domains shown)
VH: EVQLVESGGGLVQPGGSLRLSCAASGFTFTTYAMNWVRQAPGKGLEWVARIRIKNNNYATYYADSVTDRFTISRDDSKNSLYLQMNSLKTEDTAVYYCVRPDYGNYGLAYWGQGTLVTVSS
VL: DIQLTQSPSSLSASVGDRVTITCSASSSISSHYLHWYQQKPGKSPKLLIYRSFYLASGVPSRFSGSGSGTDFTLTISSLQPEDFATYYCQQDIVPLTFGQGTKLEIKR
notes: Humanized IgG1/kappa, produced in 293 cells; also called humanized CL069707-H1L1
[1]
  EC50 (read off the curve): ~1 nM
Rat CDH6-ECD-His
  EC50 (read off the curve): ~0.1 nM
